Experimental data from patent US20240409663A1 (CONCEPT TO MEDICINE BIOTECH, published 2024).

Columns and labels:
human GPC3 on cells [1] = target: T1, human GPC3 on cells (human, UniProt P51654 25-554); experiment: FACS, Huh-7 cells
T1 construct: whole, on cells; over-expressed on CHOK1 cells or endogenous on HEPG2, Hep3B and Huh-7 hepatocellular carcinoma cells; the cell line is named under assay; also called GPC3-CHOK1 cells; human GPC3 over-expressed CHOK1 cells
Description: (§1) To evaluate the antigen binding property, the humanized antibodies were analyzed for their binding to human GPC3 over-expressed CHOK1 cells and Huh-7 cells by FACS. Briefly, GPC3-CHOK1 cells and Huh-7 cells were firstly incubated with Fc blocking reagent at 4° C. for 15 mins. Cells were washed by FACS buffer and divided to each well with 4-fold serially diluted humanized antibodies starting at 10 μg/mL at 4° C. for 60 mins. Cells were washed by FACS buffer and fixed with 2% PFA at RT for 15 mins. […] As different plates might affect the EC50 of 52H5D3B8-VH+VL, the 12 humanized antibodies were separated into two plates.

human GPC3 on cells [2] = target: T1, human GPC3 on cells; experiment: FACS, GPC3-CHOK1 cells
Description: as §1

[3] = target: T2, human GPC3-his tag protein (human, UniProt P51654 25-559, limits assumed); experiment: SPR Biacore 8K, mAb captured, affinity ranking
T2 construct: recombinant soluble antigen used as analyte in all Biacore runs; also called recombinant GPC3 protein; rhGPC3-His; not shown: His tag
Description: To evaluate antigen binding activity, the chimeric antibody's affinity was measured by Biacore 8K. Two concentrations with most close affinity to the chimeric antibody's affinity were chosen for the 12 humanized antibodies' affinity detection. Human GPC3-his tag protein was injected over captured antibody for 3 mins at a flow rate of 30 μl/min. The antigen was allowed to dissociate for 720 s.

human GPC3 on cells [4] = target: T1, human GPC3 on cells; experiment: FACS, GPC3-CHOK1 cells; remark: listed apart in the source
Description: To evaluate the antigen binding property, the affinity maturated antibodies were analyzed for their binding to human GPC3 over-expressed CHOK1 cells by FACS as previously described.

human GPC3 on cells [5] = target: T1, human GPC3 on cells; experiment: cell-based or functional assay
human GPC3 on cells [6] = target: T1, human GPC3 on cells; experiment: cell-based or functional assay; remark: listed apart in the source
human GPC3 on cells [7] = target: T1, human GPC3 on cells; experiment: FACS, Huh-7 cells; remark: listed apart in the source
Description: as §1

human GPC3 on cells [8] = target: T1, human GPC3 on cells; experiment: FACS, HEPG2 cells
From the text: (§2) FACS was used to evaluate the binding activity of Hu 52H5D3B8-7 and Hu 52H5D3B8-8 with comparison to benchmark antibodies GC33 and Y035 on human GPC3 expressed on CHOK1 cells, Huh-7 cell and HEPG2 cells. In order to evaluate the properties of CDRs and frameworks of Hu 52H5D3B8-7 Ab, two chimeric antibodies were generated. The antibody termed “Hu 52H5D3B8-7/8 CDRs with Y035 FRs” contains the Hu 52H5D3B8-7 CDRs and the Y035 FRs. The antibody termed “Y035 CDRs with Hu 52H5D3B8-7 FRs” represents the chimeric antibody with the Y035 CDRs engrafted to Hu 52H5D3B8-7 FRs.

human GPC3 on cells [9] = target: T1, human GPC3 on cells; experiment: FACS, Huh-7 cells; remark: listed apart in the source
From the text: as §2

human GPC3 on cells [10] = target: T1, human GPC3 on cells; experiment: FACS, GPC3-CHOK1 cells; remark: listed apart in the source
Description: as §1

human GPC3 on cells [11] = target: T1, human GPC3 on cells; experiment: FACS, GPC3-CHOK1 cells; remark: listed apart in the source
From the text: as §2

human GPC3 on cells [12] = target: T1, human GPC3 on cells; experiment: cell-based or functional assay; remark: listed apart in the source

Row | Binder | EC50 (human GPC3 on cells [1]) [µg/mL] | EC50 (human GPC3 on cells [2]) [µg/mL] | Kd [3] [nM] | koff [3] [s⁻¹] | kon [3] [M⁻¹ s⁻¹] | EC50 (human GPC3 on cells [4]) [nM] | EC50 of ADCC signaling (Jurkat-hCD16a-NFAT luciferase reporter), HEPG2 cells (human GPC3 on cells [5]) [nM] | EC50 of ADCC signaling (Jurkat-hCD16a-NFAT luciferase reporter), Huh-7 cells (human GPC3 on cells [5]) [nM] | EC50 of ADCC cytotoxicity (primary NK cells, LDH), HEPG2 cells (human GPC3 on cells [6]) [nM] | EC50 of ADCC cytotoxicity (primary NK cells, LDH), Huh-7 cells (human GPC3 on cells [6]) [nM] | EC50 (human GPC3 on cells [7]) [µg/mL] | EC50 (human GPC3 on cells [8]) [nM] | EC50 (human GPC3 on cells [9]) [nM] | EC50 (human GPC3 on cells [10]) [µg/mL] | EC50 (human GPC3 on cells [11]) [nM] | internalization activity to HEPG2 cells, EC50 (pHAb dye fluorescence) (human GPC3 on cells [12]) [µg/mL]
1 | Hu 52H5D3B8-12 (antibody, V domains shown, humanized 52H5D3B8; also called 52H5D3B8 VH5 + VL1) VH: EVQLVQSGAEVKKPGASVKVSCKASGYTFTDYEMHWVRQAPGQGLEWIGAIHPGSGGTAYNQKFKGKATLTADKSISTAYMELSRLRSDDTAVYYCTRFYSYAYWGQGTLVTVSS VL: DVVMTQTPLSLSVTPGQPASISCRSSQSLVHSNGNTYLQWYLQKPGQSPQLLIYKVSNRFSGVPDRFSGSGSGTDFTLKISRVEAEDVGVYFCSQSIHVPYTFGGGTKVEIK | 0.0294 | 0.0384 | 3.22 | 0.001 | 310000 | – | – | – | – | – | – | – | – | – | – | –
2 | 52H5D3B8-19#-VH2+VL3 (antibody, V domains shown) VH: QVQLVQSGAEVKKPGASVKVSCKASGYTFTGYEMHWVRQAPGQGLEWIGAIHPGSGGTAYNQKFKGRVTMTADTSTSTVYMELSSLRSEDTAVYYCTRYYSYAYWGQGTLVTVSS VL: DIVMTQTPLSLSVTPGQPASISCRSSQSLVHSNGNTYLQWYLQKPGQSPKLLIYKVSNRFAGVPDRFSGSGSGTDFTLKISRVEAEDVGVYYCVESIHVPYTFGGGTKLEIK | – | – | – | – | – | 0.207 | 0.0844 | 0.266 | 0.0852 | 0.0328 | – | – | – | – | – | –
3 | Hu 52H5D3B8-8 (antibody, V domains shown, humanized 52H5D3B8; also called 52H5D3B8 VH3 + VL1) VH: EVQLVQSGAEVKKPGASVKVSCKASGYTFTDYEMHWVRQAPGQGLEWMGAIHPGSGGTAYNQKFKGRVTMTADKSISTAYMELSRLRSDDTAVYYCTRFYSYAYWGQGTLVTVSS VL: DVVMTQTPLSLSVTPGQPASISCRSSQSLVHSNGNTYLQWYLQKPGQSPQLLIYKVSNRFSGVPDRFSGSGSGTDFTLKISRVEAEDVGVYFCSQSIHVPYTFGGGTKVEIK | – | – | 3.31 | 0.0011 | 332000 | – | – | – | – | – | 0.0233 | 0.693 | 0.418 | 0.0432 | 0.434 | 0.78
4 | Hu 52H5D3B8-10 (antibody, V domains shown, humanized 52H5D3B8; also called 52H5D3B8 VH4 + VL1) VH: EVQLVQSGAEVKKPGASVKVSCKASGYTFTDYEMHWVRQAPGQGLEWIGAIHPGSGGTAYNQKFKGRVTLTADKSISTAYMELSRLRSDDTAVYYCTRFYSYAYWGQGTLVTVSS VL: DVVMTQTPLSLSVTPGQPASISCRSSQSLVHSNGNTYLQWYLQKPGQSPQLLIYKVSNRFSGVPDRFSGSGSGTDFTLKISRVEAEDVGVYFCSQSIHVPYTFGGGTKVEIK | 0.0323 | 0.0389 | 3.89 | 0.00104 | 267000 | – | – | – | – | – | – | – | – | – | – | –
5 | Hu 52H5D3B8-7 (antibody, V domains shown, humanized 52H5D3B8; also called 52H5D3B8 VH3 + VL0) VH: EVQLVQSGAEVKKPGASVKVSCKASGYTFTDYEMHWVRQAPGQGLEWMGAIHPGSGGTAYNQKFKGRVTMTADKSISTAYMELSRLRSDDTAVYYCTRFYSYAYWGQGTLVTVSS VL: DVVMTQTPLSLSVTPGQPASISCRSSQSLVHSNGNTYLQWYLQKPGQSPQLLIYKVSNRFSGVPDRFSGSGSGTDFTLKISRVEAEDVGVYYCSQSIHVPYTFGGGTKVEIK | – | – | 3.23 | 0.00103 | 320000 | – | – | – | – | – | 0.0242 | 0.757 | 0.464 | 0.0447 | 0.467 | 0.72
6 | 52H5D3B8-20#-VH2+VL3 (antibody, V domains shown) VH: QVQLVQSGAEVKKPGASVKVSCKASGYRFTDYEMHWVRQAPGQGLEWIGAIHPGSGGTAYNQLFKGRVTMTADTSTSTVYMELSSLRSEDTAVYYCTRYYSYAYWGQGTLVTVSS VL: DIVMTQTPLSLSVTPGQPASISCRSSQSLVHSNGNTYLQWYLQKPGQSPKLLIYKVSNRFPGVPDRFSGSGSGTDFTLKISRVEAEDVGVYYCVESIHVPYTFGGGTKLEIK | – | – | – | – | – | 0.207 | 0.0571 | 0.124 | 0.121 | 0.0287 | – | – | – | – | – | –
